Source: PMC11344771, “The Chlamydia pneumoniae effector SemD exploits its host’s endocytic machinery by structural and functional mimicry” (Nature Communications, 2024)

How the values were obtained:
SemDΔAPH_(67-382) = target: T1, SemDΔAPH_(67-382) (Chlamydia pneumoniae); assay: SEC-SAXS; Superdex200 increase 10/300 GL, PBS pH 8.5 + 3 % glycerol, 20 °C; 8 mg/ml SemDΔAPH, 10 mg/ml BR-GBD, 8 mg/ml SemDΔAPH + BR-GBD, 3.3 mg/l SemDΔAPH + SNX9-SH3; conditions: both partners purified
T1 construct: SemD of Chlamydia pneumoniae (382 aa), N-terminally truncated up to and including the APH motif; residues 67-382 (G67-E382); from synthetic semD DNA codon optimised for E. coli; Monomer in solution by SAXS; also called SemDΔAPHHis; source: E. coli BL21 (DE3), purified (Ni-NTA Agarose, SEC); not shown: 10xHis, C-terminal, kept

[1] = target: T2, BR-GBD fused to GFP (BR-GBD_(GFP-His)) (Rattus norvegicus, UniProt O08816 142-273); assay: pull-down; GFP-Trap agarose, BR-GBD_(GFP-His) or GFP alone as bait, equimolar test protein, 5 min RT then 30 min 4 °C, washed 6x with 10 mM Tris-HCl, 200 mM NaCl, pH 8.5; immunoblot, Elution:FT ratio normalised to the bait; conditions: both partners purified
T2 construct: amplified from GFP-N-WASP (Addgene #47406), in pDS94; source: E. coli BL21 (DE3), purified (Ni-NTA Agarose); not shown: GFP, C-terminal, kept; 10xHis, C-terminal, kept
T2 sequence (O08816 142-273): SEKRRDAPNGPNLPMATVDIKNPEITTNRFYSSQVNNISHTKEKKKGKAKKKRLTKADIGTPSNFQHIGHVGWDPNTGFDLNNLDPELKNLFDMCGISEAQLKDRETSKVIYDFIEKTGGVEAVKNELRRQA

B1: SNX9-SH3 (domain or fragment)
chain: MATKARVMYDFAAEPGNNELTVNEGEIITITNPDVGGGWLEGRNIKGERGLVPTDYVEILPS
With B1 the “stoichiometry N” value (SemDΔAPH_(67-382)) was 1.

B2: Cdc42 bound to a non-hydrolysable GTP analogue (Cdc42_(GppNHp)) (natural protein)
chain: not shown
notes: human CDC42 in pGEX-4T-1; also called Cdc42_(mGppNHp); active Cdc42; source: E. coli Rosetta, purified (Glutathione sepharose, thrombin cleavage), loaded with GppNHp or mGppNHp
For B2, the “normalised Elution:FT ratio” value [1] was about 100%.
